In publication PMC6003922, “Functional switching of ascorbate peroxidase 2 of rice (OsAPX2) between peroxidase and molecular chaperone” (Scientific Reports, 2018):

Biological target: the molecule itself
Assay: SEC; Superdex 200 10/300 GL, FPLC, 50 mM Tris-HCl pH 7.5, 100 mM NaCl, 0.5 mL/min, 4 °C; four fractions: F1 HMW complexes (>2,000 kDa), F2 and F3 LMW forms (between 158 and 440 kDa), F4 major dimeric form

B1: recombinant Oryza sativa ascorbate peroxidase 2 (OsAPX2) protein (enzyme, UniProt Q9FE01 1-251, looked up)
chain: MGSKSYPTVSDEYLAAVGKAKRKLRGLIAEKNCAPLMLRLAWHSAGTFDVSSRTGGPFGTMKNPGEQSHAANAGLDIAVRLLDPIKDQLPILSYADFYQLAGVVAVEVTGGPEVPFHPGRQDKPEPPPEGRLPDATQGSDHLRQVFSAQMGLSDKDIVALSGGHTLGRCHKERSGFEGAWTSNPLIFDNSYFTELVSGEKEGLLQLPSDKALMADPAFRPLVEKYAADEDAFFADYAEAHLKLSELGFAEE
notes: Ascorbate peroxidase 2 (OsAPX2), cytosolic, Oryza sativa; the OsAPX2 gene cloned into pET28a; monomer of approximately 27 kDa on reducing SDS-PAGE; Haem-containing peroxidase; also called His-tagged OsAPX2; purified OsAPX2; source: E. coli BL21 (DE3), pET28a, purified (nickel-nitrilotriacetate agarose; SEC)
stoichiometry N: 2
